Results from US20250352661A1 (MYTHIC THERAPEUTICS, published 2025).
Positions count from the first letter of the chain named. Numbers in names are those of the source.

T1: Human LRRC15 Protein, His Tag (Acro Biosystems) (human, UniProt Q8TF66 22-538, limits assumed)
T1 construct: not shown: His tag
T1 sequence (looked up): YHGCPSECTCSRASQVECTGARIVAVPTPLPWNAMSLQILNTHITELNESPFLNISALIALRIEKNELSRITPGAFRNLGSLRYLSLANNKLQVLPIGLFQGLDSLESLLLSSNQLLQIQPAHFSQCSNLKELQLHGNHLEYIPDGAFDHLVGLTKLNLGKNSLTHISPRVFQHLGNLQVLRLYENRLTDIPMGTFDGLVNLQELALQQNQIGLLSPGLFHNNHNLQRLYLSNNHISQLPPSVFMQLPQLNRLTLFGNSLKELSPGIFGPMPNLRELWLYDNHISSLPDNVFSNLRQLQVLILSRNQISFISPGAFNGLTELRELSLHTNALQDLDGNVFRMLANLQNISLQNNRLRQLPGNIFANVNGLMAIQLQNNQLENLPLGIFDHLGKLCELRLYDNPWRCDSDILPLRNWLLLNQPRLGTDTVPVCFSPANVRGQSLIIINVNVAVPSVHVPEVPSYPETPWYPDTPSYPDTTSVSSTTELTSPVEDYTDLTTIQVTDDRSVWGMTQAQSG

T2: Human LRRC15 Protein, His Tag (Acro Biosystems) (human, UniProt Q8TF66 22-538, limits assumed)
T2 construct: Bought protein with His tag
T2 sequence (looked up): T1 sequence (looked up)

B1: MYT9465 (antibody, V domains shown)
VH: EVQLVESGGGLVQPGGSLRLSCTASGDSFSSSHWICWVRQAPGKGLEWVGCIYAGSIGSTYYASWAKGRFTISRDTSKNTVYLQMNSLRAEDTAVYYCARAPNDIYNYYFNLWGQGTLVTVSS
VL: EIVMTQSPSTLSASVGDRVIITCQASENIYNYLAWYQQKPGKAPKLLIYYASTLASGVPSRFSGSGSGAEFTLTISSLQPDDFATYYCQSGYVSKSSTFGQGTKLTVL
notes: also called hu29F1 VH F27D
B2: MYT9480 (antibody, V domains shown)
VH: B1 VH with D27F, S56D
VL: B1 VL
notes: Humanized 29F1 VH aspartate variant; also called hu29F1 VH S56D
B3: MYT9470 (antibody, V domains shown)
VH: B1 VH with D27F, S32D
VL: B1 VL
notes: also called hu29F1 VH S32D
B4: MYT9466 (antibody, V domains shown)
VH: B1 VH with D27F, S28D
VL: B1 VL
notes: also called hu29F1 VH S28D
B5: MYT9468 (antibody, V domains shown)
VH: B1 VH with D27F, S30D
VL: B1 VL
notes: also called hu29F1 VH S30D
B6: MYT9476 (antibody, V domains shown)
VH: B1 VH with D27F, I52D
VL: B1 VL
notes: also called hu29F1 VH I52D
B7: MYT9469 (antibody, V domains shown)
VH: B1 VH with D27F, S31D
VL: B1 VL
notes: Humanized 29F1 VH aspartate variant; also called hu29F1 VH S31D
B8: MYT9481 (antibody, V domains shown)
VH: B1 VH with D27F, I57D
VL: B1 VL
notes: also called hu29F1 VH I57D
B9: MYT8414 (antibody, V domains shown)
VH: EVQLVESGGGLVQPGGSLRLSCTASGLDFRRTNYICWVRQAPGKGLEWVGCIYIADVVHYYASWAKGRFTFSRDTSKNTVYLQMNSLRAEDTAVYYCARGADGGFVYGMDLWGQGTLVTVSS
VL: EIVMTQSPSTLSASVGDRVIITCQASQSIGNHLSWYQQKPGKAPKRLIYSASTLPSGVPSRFSGSGSGAEFTLTISSLQPDDFATYYCQNNYWLAGYGHPFGQGTKLTVL
notes: hu15G7 VL Y32H; human Fc
B10: MYT8420 (antibody, V domains shown)
VH: B9 VH
VL: B9 VL with G30H, H32Y, W93H
notes: hu15G7 VL G30H, W93H; human Fc
B11: MYT8422 (antibody, V domains shown)
VH: B9 VH
VL: B9 VL with Y92H
notes: hu15G7 VL Y32H, Y92H; human Fc
B12: MYT8435 (antibody, V domains shown)
VH: B9 VH
VL: B9 VL with Y92H, G96H
notes: hu15G7 VL Y32H, Y92H, G96H; human Fc
B13: MYT8427 (antibody, V domains shown)
VH: B9 VH
VL: B9 VL with H32Y, W93H, G96H
notes: hu15G7 VL W93H, G96H; human Fc
B14: MYT8437 (antibody, V domains shown)
VH: B9 VH
VL: B9 VL with H32Y, Y92H, W93H, G96H
notes: hu15G7 VL Y92H, W93H, G96H; human Fc
B15: MYT8418 (antibody, V domains shown)
VH: B9 VH
VL: B9 VL with G30H
notes: hu15G7 VL G30H, Y32H; human Fc
B16: MYT8419 (antibody, V domains shown)
VH: B9 VH
VL: B9 VL with G30H, H32Y, Y92H
notes: hu15G7 VL G30H, Y92H; human Fc
B17: MYT8434 (antibody, V domains shown)
VH: B9 VH
VL: B9 VL with Y92H, W93H
notes: hu15G7 VL Y32H, Y92H, W93H; human Fc
B18: MYT8424 (antibody, V domains shown)
VH: B9 VH
VL: B9 VL with G96H
notes: hu15G7 VL Y32H, G96H; human Fc
B19: MYT8429 (antibody, V domains shown)
VH: B9 VH
VL: B9 VL with G30H, W93H
notes: hu15G7 VL G30H, Y32H, W93H; human Fc
B20: MYT8436 (antibody, V domains shown)
VH: B9 VH
VL: B9 VL with W93H, G96H
notes: hu15G7 VL Y32H, W93H, G96H; human Fc
B21: MYT8421 (antibody, V domains shown)
VH: B9 VH
VL: B9 VL with G30H, H32Y, G96H
notes: hu15G7 VL G30H, G96H; human Fc
B22: MYT8423 (antibody, V domains shown)
VH: B9 VH
VL: B9 VL with W93H
notes: hu15G7 VL Y32H, W93H; human Fc
B23: MYT8433 (antibody, V domains shown)
VH: B9 VH
VL: B9 VL with G30H, H32Y, W93H, G96H
notes: hu15G7 VL G30H, W93H, G96H; human Fc
B24: MYT8430 (antibody, V domains shown)
VH: B9 VH
VL: B9 VL with G30H, G96H
notes: hu15G7 VL G30H, Y32H, G96H; human Fc
B25: MYT8426 (antibody, V domains shown)
VH: B9 VH
VL: B9 VL with H32Y, Y92H, G96H
notes: hu15G7 VL Y92H, G96H; human Fc
B26: MYT8431 (antibody, V domains shown)
VH: B9 VH
VL: B9 VL with G30H, H32Y, Y92H, W93H
notes: hu15G7 VL G30H, Y92H, W93H; human Fc
B27: MYT8425 (antibody, V domains shown)
VH: B9 VH
VL: B9 VL with H32Y, Y92H, W93H
notes: hu15G7 VL Y92H, W93H; human Fc

biological target: T1, Human LRRC15 Protein, His Tag (Acro …); experiment: BLI; dissociation pH 7.4 black, pH 5.4 grey [1/2); D00019 FIG. 4B (1/2]
Experimental: Desirable mutations were transferred to a humanized framework (humanized, MYT 8387-8411). After allowing for four days of protein expression, cell culture supernatants were collected, quantified by SDS-PAGE analysis, and the pH dependence of the variant was evaluated using biolayer interferometry (BLI) on an Octet RED 96e instrument. Briefly, cell culture supernatants were diluted based on qualitative expression level of the variant determined by visual examination of SDS-PAGE gels, 5 μL of cell culture supernatant was diluted into 195 μL of 1×PBST, pH 7.4 for high expressors, 25 μL of cell culture supernatant was diluted into 175 μL of 1×PBST, pH 7.4 for medium expressors and 100 μL of cell culture supernatant was diluted into 100 μL of 1×PBST, pH 7.4 for low expressors for loading onto the sensor tips. The resulting diluted supernatants were then captured on an anti-human Fc sensor (Forte Bio). A baseline was established using 1×PBST (50 mM Potassium Phosphate Buffer+150 mM NaCl+0.05% Tween 20) pH 7.4, and the […] was associated with 50 nM of LRRC15 (Human LRRC15 Protein, His Tag, Acro Biosystems) in 1×PBST pH 7.4 for 120 sec to generate an association curve. In the dissociation phase, the antibody-antigen complex on the sensor was exposed to 1×PBST pH 7.4 or pH 5.4, for 300 sec. Association and dissociation phase curves were examined for the starting ABPC antibody (with no substitutions) and each corresponding antibody variant at pH 5.4 and pH 7.4 to inform on two criteria: a) enhanced dissociation (i.e., higher koff values) at pH 5.4 due to histidine substitution compared to the starting ABPC, (with no substitutions), and b) reduced dissociation at pH 7.4 (i.e., lower koff values) compared to pH 5.4 in the antibody variant itself and with the starting ABPC (with no substitutions).
The methods of Examples 9-10 were applied to RabMAb clone 29F1 (rabbit VH SEQ ID NO: 572 and VL SEQ ID NO: 578; and humanized VH SEQ ID NO: 576 and VL SEQ ID NO: 582).

binding result	Binder
binds	B1
binds	B2
binds	B3
binds	B4
binds	B5
binds	B6
binds	B7
binds	B8

biological target: T2, Human LRRC15 Protein, His Tag (Acro …); experiment: BLI; dissociation pH 7.4 black, pH 5.4 grey [D00010 FIG. 1H]
Text: For each individual plot, antigen binding proteins were captured on anti-human Fc biosensors and associated with LRRC15 at pH 7.4. Dissociation was at pH 7.4 (black) or pH 5.4 (grey). Major X-axis ticks=100 seconds, with left dashed vertical line=0 seconds. Major Y-axis ticks=0.5 nm and octet plots are shown MYT5712 and MYT6080-MYT6121.
Multiple LRRC15-binding monoclonal antibodies have been described in the literature and can be used as a template for engineering pH-dependent binding. We selected discovery RabMAb clone 15G7 (rabbit VH SEQ ID NO: 378, rabbit VL SEQ ID NO: 451; humanized VH SEQ ID NO: 382, humanized VL SEQ ID NO: 455) as a LRRC15-binding monoclonal antibody for pH-engineering via histidine scanning. […] To generate pH-dependent sequence variants, individual amino acid residues within the heavy chain CDRs were systematically substituted with a histidine (or alanine if H was already present in a given position; e.g., MYT6099), one at a time (rabbit, MYT6080-6121). Desirable mutations were transferred to a humanized framework (humanized, MYT 8387-8411). After allowing for four days of protein expression, cell culture supernatants were collected, quantified by SDS-PAGE analysis, and the pH dependence of the variant was evaluated using biolayer interferometry (BLI) on an Octet RED 96e instrument. Briefly, cell culture supernatants were diluted based on qualitative expression level of the variant determined by visual examination of SDS-PAGE gels, 5 μL of cell culture supernatant was diluted into 195 μL of 1×PBST, pH 7.4 for high expressors, 25 μL of cell culture supernatant was diluted into 175 μL of 1×PBST, pH 7.4 for medium expressors and 100 μL of cell culture supernatant was diluted into 100 μL of 1×PBST, pH 7.4 for low expressors for loading onto the sensor tips.

binding result	Binder
binds	B9
binds	B10
binds	B11
no binding (tested: 50 nM LRRC15)	B12
binds	B13
no binding (tested: 50 nM LRRC15)	B14
binds	B15
binds	B16
no binding (tested: 50 nM LRRC15)	B17
binds	B18
no binding (tested: 50 nM LRRC15)	B19
no binding (tested: 50 nM LRRC15)	B20
binds	B21
no binding (tested: 50 nM LRRC15)	B22
binds	B23
binds	B24
binds	B25
binds	B26
binds	B27
